From publication doi:10.1101/2023.12.06.569572

Biological target: Neurofibromin (NF1), recombinant full-length NF1 isoform 2 (human) (UniProt P21359)
Test: mass photometry
Conditions: remark: other sources report otherwise

**Q.** With “Neurofibromin (NF1), recombinant full-length NF1 isoform 2, P21359 1-2839” as the substance, how does the stoichiometry N read?
**A.** 2
